From the supplement of paper PMC12042874
± gives the uncertainty stated by the source.

test: amyloid nucleation score (Sup35N fusion, yeast selection) (log enrichment); library NNK1; higher = more nucleation; inactive = no reads after selection
Procedure, shortened: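 Psi-negative yeast expressed Sup35N fused to peptides of 20 random codons. They were induced 24 hours with 100 μM copper sulfate, grown 7 days at 30°C without adenine and uracil, and their plasmid inserts from input and output were Illumina-sequenced. The nucleation score is the DiMSum log enrichment of output over input reads, centred on the mode score of non-aggregating sequences. Sequences with under 100 input reads were excluded.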

| Substance | amyloid nucleation score |
| --- | --- |
| RMGNQYPRSVKWT | -0.029 ± 0.33 |
| RMKLTQLGYSRGNDSLSVLL | -0.813 ± 1.4 |
| RMLIYVQFTRRDKVSNPLM | -0.685 ± 0.33 |
| RMLQHLVFLAGLNDVFAKGF | 1.43 ± 0.15 |
| RMNGLSGRLSTAWQFMYMWC | -0.153 ± 0.34 |
| RMSCAHDDHPIYWSCT | -0.622 ± 0.98 |
| RNGSSMGPLSM | -0.258 ± 0.71 |
| RNIRIR | -0.534 ± 0.25 |
| RNKNFPSKGDLNQGGRNNIK | 0.877 ± 0.4 |
| RNLCTWVNRKELLSSEYLLF | -0.249 ± 0.31 |
| RNLIGLV | 0.318 ± 0.68 |
| RNLLVEFSLVSKWGLSSSWR | 0.557 ± 0.51 |
| RNMKPIYFLRPTISVNRSNR | 0.594 ± 0.85 |
| RNQKGIL | -0.042 ± 0.23 |
| RNWYKW | inactive |
| RPDALGN | -0.97 ± 0.64 |
| RPFSDLSWTLDRVWHRPCWY | 1.04 ± 0.6 |
| RPILLSSLPIHSERMWSTSL | -0.257 ± 1.4 |
| RPNLDWFLRLGFSYKCDDRR | 4.56 ± 0.13 |
| RPPCCKWRDRRCTWGIS | 0.017 ± 0.51 |
| RPSWFLTADDRVWFSSTGRG | 0.053 ± 1.4 |
| RQIVEELTSGIVGSLEV | -0.48 ± 0.57 |

| Substance | amyloid nucleation score |
| --- | --- |
| RQMLLPGMRVGKRC | 0.144 ± 0.36 |
| RQSSSSHSMNSGQNILPFRL | 0.279 ± 0.93 |
| RRCRVEFLYVHSDYM | 3.79 ± 0.097 |
| RRHLGRCTRSKLFNPLR | 0.101 ± 0.54 |
| RRKLACCCRFSVLSSGCVQN | -0.668 ± 1.7 |
| RRLMNMLEGGHMGG | 0.083 ± 0.29 |
| RRLQSNLSSCEASNPDTLRC | 0.774 ± 0.36 |
| RRQYFN | -0.855 ± 0.45 |
| RRRFTIGASVCFRQCFYCQG | -0.491 ± 1.6 |
| RRRLPGSSPISLGYFSSSLA | -0.509 ± 1.7 |
| RRTRKGWIMWPGGVDNHGNY | -0.313 ± 1.3 |
| RRTWNWPTWIMRSRRREGHG | 0.368 ± 0.42 |
| RSCKLWY | -0.204 ± 0.85 |
| RSCLMSC | 0.141 ± 0.54 |
| RSEATLYRRSSDGVKNVLQK | -0.535 ± 0.32 |
| RSFFPSNRDTTRPQATFVAR | 1.31 ± 0.68 |
| RSFIVCSRNRVGLTNFRCLE | 0.364 ± 0.84 |
| RSFSCLSQVFTYVPLTVRET | 0.22 ± 0.6 |
| RSHQSQGMPSLFNLSLVLFY | 6.489 ± 0.064 |
| RSLALEKLCSWSV | -1.38 ± 2.7 |
| RSLQDGILKTKNCL | 0.659 ± 0.24 |
| RSNFELSLSALKVMLFVGHK | inactive |

| Substance | amyloid nucleation score |
| --- | --- |
| RSQFWHFQWWTKSHNIMGLD | 0.803 ± 1.1 |
| RSQSCLVYYWTRFRPVYRFA | 0.671 ± 0.29 |
| RSRVLRMLFPAGEDYQLHMV | 0.8 ± 0.65 |
| RSSSHYRSDERPIDFVNEQE | -1.16 ± 0.77 |
| RSTKKFSPQDTPHSLHVKKG | 0.574 ± 0.42 |
| RSVNSETQKFMRWFMRVWTP | -0.332 ± 0.33 |
| RSVRCVLLVAINRVMLG | 0.52 ± 0.67 |
| RSWLLIKLTSQHASKMLVTG | 0.569 ± 0.46 |
| RSYGLAFGYFHNHVRSFARV | -0.735 ± 0.81 |
| RTGYPGSEVMGTRSFLSRNS | -0.385 ± 1.9 |
| RTVPTRWACVLVSGVWRYGA | 0.504 ± 0.46 |
| RTWAEWCLVLVSGFGSGAML | 0.086 ± 0.54 |
| RTYKINGQSKFSLACITTLS | -0.125 ± 0.7 |
| RVIGTGYECTNATEDSLSYL | inactive |
| RVKVGSRCVSQFLSTLVQRS | -0.266 ± 1.4 |
| RVPAFRY | inactive |
| RVRNMPTPSLSHMNLFSSVG | -0.038 ± 0.35 |
| RVSAMNEGMRIVCWLVFFRP | -0.166 ± 0.9 |
| RVTYETNGLWGKNVRYDIVN | 0.305 ± 0.34 |
| RVVVQNI | 1.18 ± 0.97 |
